The record followed here is paper doi:10.1101/2021.02.17.431740.

Test [1] concerns the target HA-tagged PEAK3 Y24 mutant (SH2 binding motif mutant; DKO MCF-10A cells) (UniProt Q6ZS72). Briefly: co-IP.
Test [2] addresses HA-tagged PEAK3 SH3(1) mutant (DKO MCF-10A cells) (UniProt Q6ZS72). Nature of the test: co-IP.

Sequence of CrkII (MCF-10A cells) (P46108 whole entry): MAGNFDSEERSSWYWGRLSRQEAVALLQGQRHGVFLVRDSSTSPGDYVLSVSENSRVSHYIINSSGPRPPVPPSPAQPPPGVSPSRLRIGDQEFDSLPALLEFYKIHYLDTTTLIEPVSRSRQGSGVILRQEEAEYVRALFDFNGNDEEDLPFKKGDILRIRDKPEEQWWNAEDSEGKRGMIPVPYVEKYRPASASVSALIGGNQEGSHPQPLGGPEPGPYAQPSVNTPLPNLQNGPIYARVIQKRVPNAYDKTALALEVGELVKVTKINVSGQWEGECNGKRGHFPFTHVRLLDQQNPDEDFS
Sequence of PYK2 (MCF-10A cells) (Q14289 whole entry): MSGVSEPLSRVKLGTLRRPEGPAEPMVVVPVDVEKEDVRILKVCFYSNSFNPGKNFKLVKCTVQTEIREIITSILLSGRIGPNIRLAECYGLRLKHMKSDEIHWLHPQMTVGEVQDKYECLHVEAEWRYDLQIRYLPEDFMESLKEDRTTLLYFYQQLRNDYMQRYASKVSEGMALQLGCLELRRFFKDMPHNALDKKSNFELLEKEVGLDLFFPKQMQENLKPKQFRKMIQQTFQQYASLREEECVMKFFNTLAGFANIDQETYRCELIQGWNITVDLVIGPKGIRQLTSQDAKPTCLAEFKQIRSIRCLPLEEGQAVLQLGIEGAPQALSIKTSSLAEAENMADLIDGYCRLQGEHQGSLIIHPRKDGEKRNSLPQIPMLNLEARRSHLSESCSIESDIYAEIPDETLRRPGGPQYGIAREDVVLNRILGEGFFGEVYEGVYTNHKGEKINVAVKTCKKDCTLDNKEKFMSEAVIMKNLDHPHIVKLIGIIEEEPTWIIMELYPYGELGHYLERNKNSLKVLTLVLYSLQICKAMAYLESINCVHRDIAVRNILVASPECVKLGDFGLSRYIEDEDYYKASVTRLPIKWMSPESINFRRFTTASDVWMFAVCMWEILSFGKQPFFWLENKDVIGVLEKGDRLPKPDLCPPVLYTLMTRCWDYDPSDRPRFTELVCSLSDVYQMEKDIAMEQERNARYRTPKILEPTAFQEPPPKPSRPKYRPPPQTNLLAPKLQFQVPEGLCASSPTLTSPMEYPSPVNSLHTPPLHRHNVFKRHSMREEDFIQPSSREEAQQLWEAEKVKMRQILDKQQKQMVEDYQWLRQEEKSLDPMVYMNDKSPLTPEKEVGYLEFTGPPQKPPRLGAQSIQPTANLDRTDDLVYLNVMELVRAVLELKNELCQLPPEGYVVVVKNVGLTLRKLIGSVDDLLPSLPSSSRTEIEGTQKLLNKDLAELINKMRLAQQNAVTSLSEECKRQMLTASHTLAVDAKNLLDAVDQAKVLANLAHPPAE

With “CrkII (MCF-10A cells) (from UniProt P46108-1 1-304) (natural protein)”, in test [1], the association relative to WT PEAK3 (control) was 40 % of control.
As to “PYK2 (MCF-10A cells) (from UniProt Q14289 1-1009) (natural protein)”, the recruitment relative to WT PEAK3 in test [2] was 50%.
